Consider 1 molecule from PMC7717987, “αIIbβ3 variants in ten families with autosomal dominant macrothrombocytopenia: Expanding the mutational and clinical spectrum” (PLoS ONE, 2020).

Holding throughout (details): partners not purified
Assay [1] has as its target T1, integrin αIIbβ3 (human (endogenous in platelets), UniProt P08514-1 32-1039; P05106-1 27-788).
T1 construct: integrin alpha-IIb (αIIb, GPIIb), human; integrin beta-3 (β3, GPIIIa, CD61), human; The platelets of the heterozygous patients carry wild-type and variant integrin together and are not made molecules; also called glycoprotein (GP) IIb/IIIa receptor complex; GPIIb/IIIa; source: endogenous, on platelets in citrated whole blood of healthy blood donors
Nature of the assay: flow cytometry on cells; citrated whole blood of healthy controls stimulated with ADP (10 μM); platelets gated on FSC/SSC and CD42b; bound fibrinogen detected with FITC anti-bFG (clone 9F9); platelet activation index = (MFI test tube - MFI with EDTA 7 mM) / MFI with EDTA. Background: A flow cytometer gives signals particle by particle.

Assay [2] has as its target T1, integrin αIIbβ3. The experiment in a line: flow cytometry on cells; citrated whole blood of healthy controls stimulated with TRAP-6 (20 μM); platelets gated on FSC/SSC and CD42b; bound fibrinogen detected with FITC anti-bFG (clone 9F9); platelet activation index = (MFI test tube - MFI with EDTA 7 mM) / MFI with EDTA.
Assay [3] deals with T1, integrin αIIbβ3. The experiment in a line: flow cytometry on cells; citrated whole blood of healthy controls stimulated with ADP (10 μM); platelets gated on FSC/SSC and CD42b; bound fibrinogen detected with FITC anti-bFG (clone 9F9); platelet activation index = (MFI test tube - MFI with EDTA 7 mM) / MFI with EDTA. The source holds these as a separate data set.
The target of assay [4] is T1, integrin αIIbβ3. The experiment in a line: flow cytometry on cells; citrated whole blood of healthy controls stimulated with TRAP-6 (20 μM); platelets gated on FSC/SSC and CD42b; bound fibrinogen detected with FITC anti-bFG (clone 9F9); platelet activation index = (MFI test tube - MFI with EDTA 7 mM) / MFI with EDTA. This is another data set of the same source.

B1: fibrinogen (complex, human (endogenous in whole blood))
chain 1: ADSGEGDFLAEGGGVRGPRVVERHQSACKDSDWPFCSDEDWNYKCPSGCRMKGLIDEVNQDFTNRINKLKNSLFEYQKNNKDSHSLTTNIMEILRGDFSSANNRDNTYNRVSEDLRSRIEVLKRKVIEKVQHIQLLQKNVRAQLVDMKRLEVDIDIKIRSCRGSCSRALAREVDLKDYEDQQKQLEQVIAKDLLPSRDRQHLPLIKMKPVPDLVPGNFKSQLQKVPPEWKALTDMPQMRMELERPGGNEITRGGSTSYGTGSETESPRNPSSAGSWNSGSSGPGSTGNRNPGSSGTGGTATWKPGSSGPGSTGSWNSGSSGTGSTGNQNPGSPRPGSTGTWNPGSSERGSAGHWTSESSVSGSTGQWHSESGSFRPDSPGSGNARPNNPDWGTFEEVSGNVSPGTRREYHTEKLVTSKGDKELRTGKEKVTSGSTTTTRRSCSKTVTKTVIGPDGHKEVTKEVVTSEDGSDCPEAMDLGTLSGIGTLDGFRHRHPDEAAFFDTASTGKTFPGFFSPMLGEFVSETESRGSESGIFTNTKESSSHHPGIAEFPSRGKSSSYSKQFTSSTSYNRGDSTFESKSYKMADEAGSEADHEGTHSTKRGHAKSRPVRGIHTSPLGKPSLSP
chain 2: QGVNDNEEGFFSARGHRPLDKKREEAPSLRPAPPPISGGGYRARPAKAAATQKKVERKAPDAGGCLHADPDLGVLCPTGCQLQEALLQQERPIRNSVDELNNNVEAVSQTSSSSFQYMYLLKDLWQKRQKQVKDNENVVNEYSSELEKHQLYIDETVNSNIPTNLRVLRSILENLRSKIQKLESDVSAQMEYCRTPCTVSCNIPVVSGKECEEIIRKGGETSEMYLIQPDSSVKPYRVYCDMNTENGGWTVIQNRQDGSVDFGRKWDPYKQGFGNVATNTDGKNYCGLPGEYWLGNDKISQLTRMGPTELLIEMEDWKGDKVKAHYGGFTVQNEANKYQISVNKYRGTAGNALMDGASQLMGENRTMTIHNGMFFSTYDRDNDGWLTSDPRKQCSKEDGGGWWYNRCHAANPNGRYYWGGQYTWDMAKHGTDDGVVWMNWKGSWYSMRKMSMKIRPFFPQQ
chain 3: YVATRDNCCILDERFGSYCPTTCGIADFLSTYQTKVDKDLQSLEDILHQVENKTSEVKQLIKAIQLTYNPDESSKPNMIDAATLKSRKMLEEIMKYEASILTHDSSIRYLQEIYNSNNQKIVNLKEKVAQLEAQCQEPCKDTVQIHDITGKDCQDIANKGAKQSGLYFIKPLKANQQFLVYCEIDGSGNGWTVFQKRLDGSVDFKKNWIQYKEGFGHLSPTGTTEFWLGNEKIHLISTQSAIPYALRVELEDWNGRTSTADYAMFKVGPEADKYRLTYAYFAGGDAGDAFDGFDFGDDPSDKFFTSHNGMQFSTWDNDNDKFEGNCAEQDGSGWWMNKCHAGHLNGVYYQGGTYSKASTPNGYDNGIIWATWKTRWYSMKKTTMKIIPFNRLTIGEGQQHHLGGAKQAGDV
notes: fibrinogen alpha chain, human; fibrinogen beta chain, human; fibrinogen gamma chain, human; Plasma fibrinogen of the donor's own blood; no fibrinogen was added; also called FG; soluble FG; source: endogenous, in citrated whole blood of healthy blood donors; copies: + +
Regarding B1, the “platelet activation index (PAI) by bound fibrinogen, median” value was 19 fold increase in MFI over EDTA in the assay with integrin αIIbβ3 [1], 13 fold increase in MFI over EDTA with integrin αIIbβ3 [2], 17 fold increase in MFI over EDTA with integrin αIIbβ3 [3] and 16 fold increase in MFI over EDTA with integrin αIIbβ3 [4]. Moreover, the “platelet activation index (PAI) by bound fibrinogen, mean” value in the assay with integrin αIIbβ3 [2] is 15 fold increase in MFI over EDTA; in the assay with integrin αIIbβ3 [3], 19 fold increase in MFI over EDTA.
